Consider three substances from PMC11946513, “Modulation of the substrate preference of a MYST acetyltransferase by a scaffold protein” (The Journal of Biological Chemistry, 2025).

In test [1] the target is KAT6A MYST domain (KAT6A 501-784) (human) (UniProt Q92794).
Test [2] has as its target full-length KAT6A (KAT6A^FL) (human) (UniProt Q92794).
The target of test [3] is KAT6A^FL 4-protein complex (KAT6A^FL 4-plex) (UniProt Q92794).
Test [4] has as its target KAT6A^FL-BRPF1 2-protein complex (KAT6A^FL 2-plex) (human) (UniProt Q92794).

Chain of KAT6A MYST domain (KAT6A 501-784) (human) (Q92794 501-784): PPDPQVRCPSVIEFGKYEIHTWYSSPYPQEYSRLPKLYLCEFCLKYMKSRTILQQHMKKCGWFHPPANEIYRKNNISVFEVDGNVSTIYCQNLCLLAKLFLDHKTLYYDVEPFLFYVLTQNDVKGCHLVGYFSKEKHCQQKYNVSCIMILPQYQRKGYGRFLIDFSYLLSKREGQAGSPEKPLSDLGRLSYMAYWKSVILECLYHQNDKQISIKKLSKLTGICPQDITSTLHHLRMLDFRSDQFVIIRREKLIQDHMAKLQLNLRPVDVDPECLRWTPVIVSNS
Chain of full-length KAT6A (KAT6A^FL) (human) (Q92794 whole entry): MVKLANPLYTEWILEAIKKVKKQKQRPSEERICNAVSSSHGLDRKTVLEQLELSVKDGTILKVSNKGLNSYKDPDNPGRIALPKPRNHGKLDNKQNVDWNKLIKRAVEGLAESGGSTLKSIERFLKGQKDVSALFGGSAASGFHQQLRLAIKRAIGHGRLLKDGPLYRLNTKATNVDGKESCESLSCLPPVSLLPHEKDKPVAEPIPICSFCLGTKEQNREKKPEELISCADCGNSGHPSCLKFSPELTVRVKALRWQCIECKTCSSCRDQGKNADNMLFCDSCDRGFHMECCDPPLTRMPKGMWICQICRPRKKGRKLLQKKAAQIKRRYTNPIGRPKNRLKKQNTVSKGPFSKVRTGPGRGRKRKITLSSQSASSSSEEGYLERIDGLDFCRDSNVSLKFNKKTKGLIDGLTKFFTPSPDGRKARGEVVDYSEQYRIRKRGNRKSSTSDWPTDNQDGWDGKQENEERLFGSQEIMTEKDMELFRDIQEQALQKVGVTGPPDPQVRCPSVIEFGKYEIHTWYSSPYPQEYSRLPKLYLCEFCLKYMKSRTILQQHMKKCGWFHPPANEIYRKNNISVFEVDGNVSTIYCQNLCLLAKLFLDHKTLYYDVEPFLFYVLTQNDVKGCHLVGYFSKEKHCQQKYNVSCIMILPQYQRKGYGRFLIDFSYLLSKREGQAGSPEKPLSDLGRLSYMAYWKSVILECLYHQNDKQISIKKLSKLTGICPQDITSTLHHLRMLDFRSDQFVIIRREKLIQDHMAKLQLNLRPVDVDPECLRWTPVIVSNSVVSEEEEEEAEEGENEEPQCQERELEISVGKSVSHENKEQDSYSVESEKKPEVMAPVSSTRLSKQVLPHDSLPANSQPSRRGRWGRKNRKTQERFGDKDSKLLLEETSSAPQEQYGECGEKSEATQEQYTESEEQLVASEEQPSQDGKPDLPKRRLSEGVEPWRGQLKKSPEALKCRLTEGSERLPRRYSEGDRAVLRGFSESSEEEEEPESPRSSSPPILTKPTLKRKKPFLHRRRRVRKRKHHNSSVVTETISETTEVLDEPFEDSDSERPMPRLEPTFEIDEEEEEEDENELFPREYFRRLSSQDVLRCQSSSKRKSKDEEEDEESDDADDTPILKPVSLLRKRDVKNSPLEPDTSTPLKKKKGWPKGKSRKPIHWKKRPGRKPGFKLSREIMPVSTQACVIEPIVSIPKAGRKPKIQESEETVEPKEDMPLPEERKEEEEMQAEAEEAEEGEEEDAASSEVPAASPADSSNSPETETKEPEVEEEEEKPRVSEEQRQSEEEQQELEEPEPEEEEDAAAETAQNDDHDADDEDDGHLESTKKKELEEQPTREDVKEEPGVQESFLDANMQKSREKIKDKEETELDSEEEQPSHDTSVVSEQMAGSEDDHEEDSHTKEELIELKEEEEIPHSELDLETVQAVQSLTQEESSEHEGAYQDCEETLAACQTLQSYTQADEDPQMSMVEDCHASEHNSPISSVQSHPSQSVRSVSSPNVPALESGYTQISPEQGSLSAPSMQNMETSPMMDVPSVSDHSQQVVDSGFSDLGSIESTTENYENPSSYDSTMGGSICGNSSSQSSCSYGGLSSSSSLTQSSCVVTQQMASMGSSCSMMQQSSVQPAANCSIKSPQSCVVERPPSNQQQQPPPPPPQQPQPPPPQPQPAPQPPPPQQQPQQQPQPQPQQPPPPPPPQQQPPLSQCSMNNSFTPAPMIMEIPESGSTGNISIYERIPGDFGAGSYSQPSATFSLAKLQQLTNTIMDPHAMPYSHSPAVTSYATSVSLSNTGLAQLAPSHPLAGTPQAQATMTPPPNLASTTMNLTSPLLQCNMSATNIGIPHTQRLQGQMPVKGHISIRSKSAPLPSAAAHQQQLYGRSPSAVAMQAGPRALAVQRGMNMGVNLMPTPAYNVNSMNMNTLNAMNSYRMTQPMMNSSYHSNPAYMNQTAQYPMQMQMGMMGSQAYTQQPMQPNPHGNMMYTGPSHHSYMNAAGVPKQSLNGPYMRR
Chain of KAT6A^FL-BRPF1 2-protein complex (KAT6A^FL 2-plex) (human) (Q92794 whole entry, chain 1 of 2): as the sequence (Q92794 whole entry) above
Chain of KAT6A^FL-BRPF1 2-protein complex (KAT6A^FL 2-plex) (human) (P55201 whole entry, chain 2 of 2, further chain): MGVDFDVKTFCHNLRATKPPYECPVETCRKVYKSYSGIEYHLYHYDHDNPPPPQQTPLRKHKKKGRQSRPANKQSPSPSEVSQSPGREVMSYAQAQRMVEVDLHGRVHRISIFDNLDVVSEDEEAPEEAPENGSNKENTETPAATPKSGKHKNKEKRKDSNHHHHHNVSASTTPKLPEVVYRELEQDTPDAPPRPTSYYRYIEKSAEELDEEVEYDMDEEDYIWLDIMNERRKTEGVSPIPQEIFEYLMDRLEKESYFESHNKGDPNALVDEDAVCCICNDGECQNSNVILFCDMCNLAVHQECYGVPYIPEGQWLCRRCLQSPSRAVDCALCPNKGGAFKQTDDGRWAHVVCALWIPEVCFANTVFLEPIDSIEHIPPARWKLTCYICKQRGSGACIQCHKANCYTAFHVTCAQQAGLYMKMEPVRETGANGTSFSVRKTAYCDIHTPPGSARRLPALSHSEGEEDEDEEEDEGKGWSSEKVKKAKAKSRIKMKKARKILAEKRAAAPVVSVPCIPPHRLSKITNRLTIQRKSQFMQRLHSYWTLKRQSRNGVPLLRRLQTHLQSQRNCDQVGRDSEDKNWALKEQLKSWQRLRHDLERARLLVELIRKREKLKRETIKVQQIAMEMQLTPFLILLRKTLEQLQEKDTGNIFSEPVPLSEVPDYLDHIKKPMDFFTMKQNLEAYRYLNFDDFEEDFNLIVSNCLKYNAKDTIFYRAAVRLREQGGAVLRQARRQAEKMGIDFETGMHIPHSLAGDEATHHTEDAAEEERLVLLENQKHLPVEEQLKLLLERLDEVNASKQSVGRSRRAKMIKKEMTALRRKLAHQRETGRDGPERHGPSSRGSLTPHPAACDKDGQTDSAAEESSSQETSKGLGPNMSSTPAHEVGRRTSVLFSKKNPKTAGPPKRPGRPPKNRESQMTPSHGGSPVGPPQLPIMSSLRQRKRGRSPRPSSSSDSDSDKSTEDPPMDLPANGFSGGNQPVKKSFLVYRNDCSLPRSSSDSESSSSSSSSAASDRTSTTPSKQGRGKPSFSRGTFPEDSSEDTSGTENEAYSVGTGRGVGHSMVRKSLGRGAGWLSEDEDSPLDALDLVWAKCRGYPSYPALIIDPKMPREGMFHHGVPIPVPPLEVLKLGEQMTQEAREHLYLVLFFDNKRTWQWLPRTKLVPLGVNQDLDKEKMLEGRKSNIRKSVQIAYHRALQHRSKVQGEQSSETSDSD
Chain of KAT6A^FL 4-protein complex (KAT6A^FL 4-plex) (Q92794 whole entry, looked up, one chain of several): as the sequence (Q92794 whole entry) above

Turning to H3.3 (15-36) (peptide), the KM of steady-state acetylation of the peptide (CoA formation by MS; 20 μM AcCoA, 25 °C) was 360 µM in test [1], 30 µM in test [2], 16 µM in test [3] and 13 µM in test [4].

With H3.3 (1-43) (peptide), the KM of steady-state acetylation of the peptide (CoA formation by MS; 20 μM AcCoA, 25 °C) was 130 µM in test [1] and 3.2 µM in test [2].

In the case of H3 (1-21) (peptide), the KM of steady-state acetylation of the peptide (CoA formation by MS; 20 μM AcCoA, 25 °C) in test [1] was found to be 380 µM; in test [2], 16 µM.
